Consider 3 molecules from US20210324028A1 (Pfizer, published 2021).

Where two headings read alike, the source gives them in different places. A value given as a limit tells only on which side of the number the result lay.

Assay [1] has as its target T1, human CD122/CD132 on cells of human PBMCs (human, UniProt P14784 27-551; P31785 23-369).
T1 sequence (looked up) 1: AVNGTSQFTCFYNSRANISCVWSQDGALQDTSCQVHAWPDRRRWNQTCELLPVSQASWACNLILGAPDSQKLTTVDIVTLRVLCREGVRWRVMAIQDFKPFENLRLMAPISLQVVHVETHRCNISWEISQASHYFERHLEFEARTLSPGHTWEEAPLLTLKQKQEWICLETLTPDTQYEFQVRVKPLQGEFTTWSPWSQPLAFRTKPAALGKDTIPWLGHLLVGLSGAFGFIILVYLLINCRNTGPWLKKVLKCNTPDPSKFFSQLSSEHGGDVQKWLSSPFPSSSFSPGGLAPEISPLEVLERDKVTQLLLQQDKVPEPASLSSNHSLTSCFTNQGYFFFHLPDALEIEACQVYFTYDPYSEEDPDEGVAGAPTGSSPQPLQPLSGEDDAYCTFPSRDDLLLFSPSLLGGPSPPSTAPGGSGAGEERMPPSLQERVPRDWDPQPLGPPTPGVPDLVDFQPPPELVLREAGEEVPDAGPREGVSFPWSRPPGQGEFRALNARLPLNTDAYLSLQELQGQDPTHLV
T1 sequence (looked up) 2: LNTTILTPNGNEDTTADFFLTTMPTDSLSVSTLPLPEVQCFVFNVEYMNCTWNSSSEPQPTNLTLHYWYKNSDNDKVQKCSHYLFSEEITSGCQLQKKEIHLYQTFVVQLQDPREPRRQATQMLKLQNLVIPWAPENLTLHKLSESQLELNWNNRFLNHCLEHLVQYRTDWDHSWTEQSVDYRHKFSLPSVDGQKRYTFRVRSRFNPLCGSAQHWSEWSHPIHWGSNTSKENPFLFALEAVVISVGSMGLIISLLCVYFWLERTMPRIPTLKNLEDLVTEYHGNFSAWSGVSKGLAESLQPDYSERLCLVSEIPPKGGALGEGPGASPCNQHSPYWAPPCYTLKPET
As to the kind of experiment: cell-based or functional assay.

In assay [2] the target is human PD-1 on cells of human PBMCs (human, UniProt Q15116 25-288). As to the kind of experiment: cell-based or functional assay.
Chain of human PD-1 on cells of human PBMCs (Q15116 25-288): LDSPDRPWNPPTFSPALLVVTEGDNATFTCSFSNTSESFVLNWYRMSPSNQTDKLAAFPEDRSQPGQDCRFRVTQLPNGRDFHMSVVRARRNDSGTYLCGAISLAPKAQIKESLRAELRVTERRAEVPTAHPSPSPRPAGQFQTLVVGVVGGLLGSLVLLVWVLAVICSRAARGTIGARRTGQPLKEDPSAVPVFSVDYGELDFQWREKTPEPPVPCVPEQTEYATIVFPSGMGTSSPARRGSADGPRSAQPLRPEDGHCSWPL
Assay [3] concerns the target T2, IL-15 signaling receptor on 32D[pRF770+pRF791] cells (human CD122 plus mouse CD132) (human; mouse, UniProt P14784 27-551; P34902 23-369).
T2 sequence (looked up) 1: T1 sequence (looked up) 1
T2 sequence (looked up) 2: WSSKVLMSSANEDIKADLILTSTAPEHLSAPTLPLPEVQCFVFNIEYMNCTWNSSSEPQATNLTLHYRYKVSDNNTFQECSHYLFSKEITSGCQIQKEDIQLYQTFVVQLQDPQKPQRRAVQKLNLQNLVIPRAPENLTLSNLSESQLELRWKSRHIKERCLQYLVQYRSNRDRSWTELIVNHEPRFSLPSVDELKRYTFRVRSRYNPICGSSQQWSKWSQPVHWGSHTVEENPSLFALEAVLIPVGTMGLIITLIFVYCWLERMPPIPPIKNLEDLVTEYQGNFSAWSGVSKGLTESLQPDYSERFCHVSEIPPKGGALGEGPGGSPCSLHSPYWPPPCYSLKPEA
As to the kind of experiment: cell-based or functional assay.

The target of assay [4] is T3, mouse PD-1 on doxycycline-induced 32D[pRF770+pRF791] cells (mouse, UniProt Q02242 25-288).
T3 sequence (looked up): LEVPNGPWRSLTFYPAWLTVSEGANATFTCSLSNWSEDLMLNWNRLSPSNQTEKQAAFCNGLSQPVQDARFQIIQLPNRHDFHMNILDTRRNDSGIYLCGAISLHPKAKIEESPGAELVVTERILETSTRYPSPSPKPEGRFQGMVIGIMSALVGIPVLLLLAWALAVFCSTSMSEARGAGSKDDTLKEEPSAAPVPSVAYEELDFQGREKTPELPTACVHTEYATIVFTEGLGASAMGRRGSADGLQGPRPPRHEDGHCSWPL
The experiment in a line: cell-based or functional assay.

Assay [5] deals with T2, IL-15 signaling receptor on …. The experiment in a line: cell-based or functional assay. This is another data set of the same source.
Assay [6] deals with T3, mouse PD-1 on doxycycline-induced …. As to the kind of experiment: cell-based or functional assay. This is another data set of the same source.
Assay [7] concerns the target T2, IL-15 signaling receptor on …. As to the kind of experiment: cell-based or functional assay. The source holds these as a separate data set.
For assay [8], the target named is T3, mouse PD-1 on doxycycline-induced …. As to the kind of experiment: cell-based or functional assay. This is another data set of the same source.
The target of assay [9] is T4, human IL-2Rβ (human, UniProt P14784 27-240, limits assumed).
T4 construct: also called hIL-2Rβ; IL-2 receptor beta
T4 sequence (looked up): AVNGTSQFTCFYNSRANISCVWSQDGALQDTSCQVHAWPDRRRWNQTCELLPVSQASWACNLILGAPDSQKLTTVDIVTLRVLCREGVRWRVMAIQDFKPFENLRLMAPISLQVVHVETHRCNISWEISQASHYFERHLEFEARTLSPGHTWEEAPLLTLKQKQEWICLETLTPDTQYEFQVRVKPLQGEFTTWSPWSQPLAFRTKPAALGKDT
As to the kind of experiment: SPR, steady state, fusion captured. The gist of the method: (§1)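 Anti-PD-1–hIL-15 fusions captured at 10 μg/mL on an anti-human Fc surface, receptor injected at 37 °C in HEPES-buffered saline with 0.05% Tween-20 and 1 mg/mL BSA, pH 7.4; 5 min dissociation.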
A general note: Surface plasmon resonance follows binding to a sensor surface in real time, without labels.

Assay [10] has as its target T5, human IL-15Rα (human, UniProt Q13261 31-205, limits assumed).
T5 construct: also called hIL-15Rα; IL-15 receptor alpha
The experiment in a line: SPR 37C, fusion captured by anti-human Fc. The gist of the method: as §1

The target in assay [11] is T2, IL-15 signaling receptor on …. As to the kind of experiment: cell-based or functional assay. The source holds these as a separate data set.
The target in assay [12] is T3, mouse PD-1 on doxycycline-induced …. The experiment in a line: cell-based or functional assay. The source holds these as a separate data set.
For assay [13] the target is unchanged. The experiment in a line: flow cytometry, Alexa647-labelled protein on doxycycline-induced 32D[pRF770+pRF791] cells (mouse PD-1 together with CD122 plus CD132), 4 C 30 min, % A647-positive cells. The procedure:
The following cell lines were suspended in growth medium to 0.7*10\hat{ }6 cells/mL and, cultured for 16 hrs: 1) untransduced 32D (parental line); 2) 32D[pRF770+pRF791]; and 3) 32D[pRF770+pRF791] grown in the presence of 1 ug/mL doxycycline, to induce PD-1 expression. Cultures were then resuspended to a final concentration of 1.0*10\hat{ }6 cells/mL, and 0.1 mL of each suspension was plated into separate wells of a 96-well round-bottom plate, of sufficient number required for the experiment. Each Alexa647-labeled antibody or antibody-cytokine chimeric proteins were then added to a unique well to obtain a final concentration of 500 nM, 100 nM, […], 1 nM, 0.1 nM, 0.01 nM, or 0.001 nM in a given well. Plates were incubated at 4° C. for 30′, and then the cells were pelleted by centrifugation (300×g, 5′) and resuspended in 0.2 mL of PBS. This wash step was repeated twice. Upon final resuspension, the cells were analyzed on an LSRII flow cytometer. Data were analyzed using FlowJo version 10.
(A flow cytometer gives signals particle by particle.)

Assay [14] concerns the target T4, human IL-2Rβ. As to the kind of experiment: SPR, fusion captured. The essentials: as §1

T5 sequence (Q13261 31-205 limits assumed): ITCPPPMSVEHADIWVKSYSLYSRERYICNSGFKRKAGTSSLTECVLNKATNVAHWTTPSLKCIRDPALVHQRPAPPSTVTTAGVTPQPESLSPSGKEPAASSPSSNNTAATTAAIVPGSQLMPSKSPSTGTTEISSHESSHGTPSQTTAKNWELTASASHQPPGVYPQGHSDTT

B1: xhPD-1-IL15 m2 (other)
heavy 1: not shown
heavy 2: not shown
light: DIQMTQSPSSLSASVGDRVTITCKSSQSLWDSGNQKNFLTWYQQKPGKAPKLLIYWTSYRESGVPSRFSGSGSGTDFTLTISSLQPEDFATYYCQNDYFYPLTFGGGTKVEIKRTVAAPSVFIFPPSDEQLKSGTASVVCLLNNFYPREAKVQWKVDNALQSGNSQESVTEQDSKDSTYSLSSTLTLSKADYEKHKVYACEVTHQGLSSPVTKSFNRGEC
With B1, the “pSTAT5 EC50 on human NK cells (hPBMC)” value in [1] stood at 8.27 nM. Further, in assay [2], the “Fold change = EC50 (Isotype control--IL15)/EC50 (xhPD1--IL15), CD8+cm T cells” value came out at 76.5 fold; the “Fold change = EC50 (Isotype control--IL15)/EC50 (xhPD1--IL15), NK cells” value came out at 1.36 fold; the “pSTAT5 EC50 on human CD8+cm T cells (hPBMC)” value was 0.492 nM.

B2: xmPD-1-hIL15 NQ mutant (other)
heavy 1: HHHHHHHHGGGGSGSGGEVQLVESGGGLVKPGGSLELSCAASGFTFSSYWMSWVRQAPEKGLEWVAAISPSGGSTYYADSVKGRFTISRDNAKNTLFLQMTSLRSEDTAMYYCAKESWGAYYDLWGQGTTVTVSSASTKGPSVFPLAPCSRSTSESTAALGCLVKDYFPEPVTVSWNSGALTSGVHTFPAVLQSSGLYSLSSVVTVPSSNFGTQTYTCNVDHKPSNTKVDKTVERKCRVRCPRCPAPPVAGPSVFLFPPKPKDTLMISRTPEVTCVVVAVSHEDPEVQFNWYVDGVEVHNAKTKPREEQFNSTFRVVSVLTVVHQDWLNGKEYKCKVSNKGLPSSIEKTISKTKGQPREPQVYTLPPSREEMTKNQVSLTCLVKGFYPSDIAVEWESNGQPENNYKTTPPMLDSDGSFFLYSRLTVDKSRWQQGNVFSCSVMHEALHNHYTQKSLSLSPGK
heavy 2: EVQLVESGGGLVKPGGSLELSCAASGFTFSSYWMSWVRQAPEKGLEWVAAISPSGGSTYYADSVKGRFTISRDNAKNTLFLQMTSLRSEDTAMYYCAKESWGAYYDLWGQGTTVTVSSASTKGPSVFPLAPCSRSTSESTAALGCLVKDYFPEPVTVSWNSGALTSGVHTFPAVLQSSGLYSLSSVVTVPSSNFGTQTYTCNVDHKPSNTKVDKTVERKCEVECPECPAPPVAGPSVFLFPPKPKDTLMISRTPEVTCVVVAVSHEDPEVQFNWYVDGVEVHNAKTKPREEQFNSTFRVVSVLTVVHQDWLNGKEYKCKVSNKGLPSSIEKTISKTKGQPREPQVYTLPPSREEMTKNQVSLTCEVKGFYPSDIAVEWESNGQPENNYKTTPPMLDSDGSFFLYSKLTVDKSRWQQGNVFSCSVMHEALHNHYTQKSLSLSPGSGGGGGTATATPGANWVNVISDLKKIEDLIQSMHINATLFTESDVHPSCKVTAMKCFLLQLQVISLQSGDASIHDTVENLIILANNSLSSNGNVTESGCKECQELEQKNIKEFLQSFVHIVQMFINT
light: DIVMTQSPSSLSVSAGDKVTMSCRASQGISSWLAWYQQKPWQPPKLLIYKASTLESGVPDRFTGSGSGTDFTLTISSVQAEDLAVYYCQQSYSTPWTFGGGTKLEIKGTVAAPSVFIFPPSDEQLKSGTASVVCLLNNFYPREAKVQWKVDNALQSGNSQESVTEQDSKDSTYSLSSTLTLSKADYEKHKVYACEVTHQGLSSPVTKSFNRGEC
notes: also called xmPD-1-IL15 NQ; xmPD1-IL15 NQ
For orientation: Kd means a measure of binding affinity in units of concentration. Read a high Kd as weaker binding. A word on the EC50 (read off the curve): it is the concentration that produces a half-maximal response. As to B2, the “pSTAT5 EC50 on PD-1(low) 32D reporter cells” value in assay [3] was found to be 21.1 nM; in [5], 7.29 nM; in assay [7], 13.3 nM; in assay [11] it was 1.72 nM. For the same molecule, the “Fold change = EC50 (PD-1(low))/EC50 (PD-1+)” value in assay [4] stood at 223 fold; in [6], 241 fold; in [8], 1230 fold; in [12] it was 300 fold. In addition, the “pSTAT5 EC50 on PD-1+ 32D reporter cells” value amounted to 90 pM in assay [4], 30.3 pM in assay [6], 10.9 pM in [8] and 5.74 pM in assay [12]. The same molecule returned a Kd in assay [9] of 518 nM. The binding result in [10] was “no binding (tested: 3000 nM)”. The “EC50 (read off the curve)” value in [13] is around 0.03 nM.

B3: xmPD-1-hIL15 V49R/Y26K/E64Q/D30N (other)
heavy 1: B2 heavy 1
heavy 2: EVQLVESGGGLVKPGGSLELSCAASGFTFSSYWMSWVRQAPEKGLEWVAAISPSGGSTYYADSVKGRFTISRDNAKNTLFLQMTSLRSEDTAMYYCAKESWGAYYDLWGQGTTVTVSSASTKGPSVFPLAPCSRSTSESTAALGCLVKDYFPEPVTVSWNSGALTSGVHTFPAVLQSSGLYSLSSVVTVPSSNFGTQTYTCNVDHKPSNTKVDKTVERKCEVECPECPAPPVAGPSVFLFPPKPKDTLMISRTPEVTCVVVAVSHEDPEVQFNWYVDGVEVHNAKTKPREEQFNSTFRVVSVLTVVHQDWLNGKEYKCKVSNKGLPSSIEKTISKTKGQPREPQVYTLPPSREEMTKNQVSLTCEVKGFYPSDIAVEWESNGQPENNYKTTPPMLDSDGSFFLYSKLTVDKSRWQQGNVFSCSVMHEALHNHYTQKSLSLSPGSGGGGGTSATATPGANWVNVISDLKKIEDLIQSMHIDATLKTESNVHPSCKVTAMKCFLLELQRISLESGDASIHDTVQNLIILANNSLSSNGNVTESGCKECEELEEKNIKEFLQSFVHIVQMFINT
light: B2 light
notes: not restated for this mutant; also called xmPD1 -V49R/Y26K/E64Q/D30N
In assay [14], B3 showed a Kd above 1500 nM. Further, in assay [5], the “pSTAT5 EC50 on PD-1(low) 32D reporter cells” value stood at 21.4 nM. Besides, in assay [6], the “Fold change = EC50 (PD-1(low))/EC50 (PD-1+)” value is 382 fold and the “pSTAT5 EC50 on PD-1+ 32D reporter cells” value stood at 56.1 pM. Further, the binding result in [10] is “no binding (tested: 3000 nM)”.
